From US20170097353A1 (University of California, published 2017) come the findings set out here.

The target in the test is T1, Prostate Specific Membrane Antigen (PSMA) on the surface of LNCaP / LNCaP CSS prostate cancer cells (human, UniProt Q04609 1-750, glycoprotein).
T1 construct: whole, on cells; Endogenous PSMA on LNCaP cells (derived from lymph node adenocarcinoma of the human prostate); Cells were glutaraldehyde-fixed on Maxisorp plates in the cell-based phage ELISA, or in suspension in the sandwich ELISA; also called cell surface PSMA
T1 sequence (Q04609 whole entry): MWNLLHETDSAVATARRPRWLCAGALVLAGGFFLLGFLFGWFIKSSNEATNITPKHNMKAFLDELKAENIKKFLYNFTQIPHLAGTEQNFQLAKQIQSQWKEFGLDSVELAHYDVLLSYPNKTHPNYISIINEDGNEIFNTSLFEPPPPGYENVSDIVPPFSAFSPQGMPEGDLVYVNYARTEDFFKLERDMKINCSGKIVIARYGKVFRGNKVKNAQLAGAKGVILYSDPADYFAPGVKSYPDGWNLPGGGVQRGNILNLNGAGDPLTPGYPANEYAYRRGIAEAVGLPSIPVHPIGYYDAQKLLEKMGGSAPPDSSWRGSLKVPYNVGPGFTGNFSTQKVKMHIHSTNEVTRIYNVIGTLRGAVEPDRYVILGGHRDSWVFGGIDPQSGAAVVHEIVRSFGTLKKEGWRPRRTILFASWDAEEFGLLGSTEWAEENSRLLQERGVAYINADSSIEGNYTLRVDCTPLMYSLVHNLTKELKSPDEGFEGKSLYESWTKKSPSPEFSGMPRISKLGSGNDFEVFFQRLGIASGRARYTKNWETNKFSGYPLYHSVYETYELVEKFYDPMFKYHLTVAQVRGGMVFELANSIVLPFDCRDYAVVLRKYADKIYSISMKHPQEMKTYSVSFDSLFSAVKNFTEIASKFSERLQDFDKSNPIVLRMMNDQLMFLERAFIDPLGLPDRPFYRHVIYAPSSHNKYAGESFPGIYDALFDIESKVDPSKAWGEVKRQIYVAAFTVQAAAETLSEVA
The test is described as follows: cell-based phage ELISA on LNCaP cells (FIG. 5A). For orientation: In an ELISA, binding on a coated surface is turned into a signal by an enzyme label.

Ends that are not written are not given here. * marks the point of attachment. Butanoyl(4-N3) = [N-]=[N+]=NCCCC(=O)*

B1: P100NSP-P4-2 on phage (PEG100, non-specific attachment, PEG4 linker, ligand 2; on M13 phage wrapped with K14-Cys) (peptide)
peptide: {pentynoic acid-15‑azido‑4,7,10,13‑tetraoxapentadecanoic acid}-SECVEVFQNSCDW-NH2
modifications: not fully specified; cysteine pairing not given here; also: pentynoic acid clicked to azide (triazole), Mal-PEG100-NH2 HBTU-coupled non-specifically
notes: Multivalent display on M13 phage wrapped with K14-Cys
As to B1, the binding result was “binds”.

B2: P100SP-2 on phage (PEG100, specific attachment to ligand 2; bioconjugated to M13 phage wrapped with K14-Cys) (peptide)
peptide: SECVEVFQNSCDW-NH2
modifications: not fully specified (N-terminus); cysteine pairing not given here; also: Mal-PEG100-alkyne clicked (triazole) to azide at N-terminus
notes: as for B1
In the case of B2, the binding result is “binds”.

B3: P100NSP-2 on phage (PEG100, non-specific attachment to ligand 2; bioconjugated to M13 phage wrapped with K14-Cys) (peptide)
peptide: {pentynoic acid-Butanoyl(4-N3)}-SECVEVFQNSCDW-NH2
modifications: not fully specified; cysteine pairing not given here; also: Mal-PEG100 coupled non-specifically (N-terminal or side-chain carboxylate)
notes: Multivalent display on M13 phage wrapped with K14-Cys; also called PEGylated ligand 2; peptide-2
Regarding B3, the binding result is reported as “binds”.

B4: P100SP-P4-2 on phage (PEG100, specific attachment, PEG4 linker, ligand 2; on M13 phage wrapped with K14-Cys) (peptide)
peptide: {Mal‑PEG100‑alkyne (triazole)-PEG4 linker}-SECVEVFQNSCDW-NH2
modifications: not fully specified; cysteine pairing not given here
notes: as for B1
For the molecule B4, the binding result is “binds”.
